From publication PMC2696619
Read-outs that look alike come from different tables or passages of the source.

Tests used:
[1] = molecular target: human C3b (human) (UniProt P01024); assay: radioligand binding
[2] = molecular target: human C3b (human) (UniProt P01024); assay: radioligand binding; remark: listed apart in the source

wildtype rH19-20 (recombinant domains 19-20 of factor H) (from UniProt P08603 1107-1231) (domain or fragment)
IC50 [1]: 1 µM | IC50 [2]: 0.2 µM
